Article PMC3214759 (Biochemistry, 2011)

Columns and labels:
crystal structure = molecular target: the molecule itself; assay: crystal structure
SEC = molecular target: the molecule itself; assay: SEC

Protein | stoichiometry N (crystal structure) | stoichiometry N (SEC)
Rhizobium etli pyruvate carboxylase T882A mutant (enzyme, biotin tethered to Lys1119) PISKILVANRSEIAIRVFRAANELGIKTVAIWAEEDKLALHRFKADESYQVGRGPHLARDLGPIESYLSIDEVIRVAKLSGADAIHPGYGLLSESPEFVDACNKAGIIFIGPKADTMRQLGNKVAARNLAISVGVPVVPATEPLPDDMAEVAKMAAAIGYPVMLKASWGGGGRGMRVIRSEADLAKEVTEAKREAMAAFGKDEVYLEKLVERARHVESQILGDTHGNVVHLFERDCSVQRRNQKVVERAPAPYLSEAQRQELAAYSLKIAGATNYIGAGTVEYLMDADTGKFYFIEVNPRIQVEHTVTEVVTGIDIVKAQIHILDGAAIGTPQSGVPNQEDIRLNGHALQCRVTTEDPEHNFIPDYGRITAYRSASGFGIRLDGGTSYSGAIITRYYDPLLVKVTAWAPNPLEAISRMDRALREFRIRGVATNLTFLEAIIGHPKFRDNSYTTRFIDTTPELFQQVKRQDRATKLLTYLADVTVNGHPEAKDRPKPLENAARPVVPYANGNGVKDGTKQLLDTLGPKKFGEWMRNEKRVLLTDTTMRDGHQSLLATRMRTYDIARIAGTYSHALPNLLSLECWGGATFDVSMRFLTEDPWERLALIREGAPNLLLQMLLRGANGVGYTNYPDNVVKYFVRQAAKGGIDLFRVFDCLNWVENMRVSMDAIAEENKLCEAAICYTGDILNSARPKYDLKYYTNLAVELEKAGAHIIAVKDMAGLLKPAAAKVLFKALREATGLPIHFHTHDTSGIAAATVLAAVEAGVDAVDAAMDALSGNTSQPCLGSIVEALSGSERDPGLDPAWIRRISFYWEAVRNQYAAFESDLKGPASEVYLHEMPGGQFTNLKEQARSLGLETRWHQVAQAYADANQMFGDIVKVAPSSKVVGDMALMMVSQDLTVADVVSPDREVSFPESVVSMLKGDLGQPPSGWPEALQKKALKGEKPYTVRPGSLLKEADLDAERKVIEKKLEREVSDFEFASYLMYPKVFTDFALASDTYGPVSVLPTPAYFYGLADGEELFADIEKGKTLVIVNQAVSATDSQGMVTVFFELNGQPRRIKVPDRAHGATGAAVRRKAEPGNAAHVGAPMPGVISRVFVSSGQAVNAGDVLVSIEAMKMETAIHAEKDGTIAEVLVKAGDQIDAKDLLAVYGG | 4 | 
wild-type Rhizobium etli pyruvate carboxylase (enzyme) PISKILVANRSEIAIRVFRAANELGIKTVAIWAEEDKLALHRFKADESYQVGRGPHLARDLGPIESYLSIDEVIRVAKLSGADAIHPGYGLLSESPEFVDACNKAGIIFIGPKADTMRQLGNKVAARNLAISVGVPVVPATEPLPDDMAEVAKMAAAIGYPVMLKASWGGGGRGMRVIRSEADLAKEVTEAKREAMAAFGKDEVYLEKLVERARHVESQILGDTHGNVVHLFERDCSVQRRNQKVVERAPAPYLSEAQRQELAAYSLKIAGATNYIGAGTVEYLMDADTGKFYFIEVNPRIQVEHTVTEVVTGIDIVKAQIHILDGAAIGTPQSGVPNQEDIRLNGHALQCRVTTEDPEHNFIPDYGRITAYRSASGFGIRLDGGTSYSGAIITRYYDPLLVKVTAWAPNPLEAISRMDRALREFRIRGVATNLTFLEAIIGHPKFRDNSYTTRFIDTTPELFQQVKRQDRATKLLTYLADVTVNGHPEAKDRPKPLENAARPVVPYANGNGVKDGTKQLLDTLGPKKFGEWMRNEKRVLLTDTTMRDGHQSLLATRMRTYDIARIAGTYSHALPNLLSLECWGGATFDVSMRFLTEDPWERLALIREGAPNLLLQMLLRGANGVGYTNYPDNVVKYFVRQAAKGGIDLFRVFDCLNWVENMRVSMDAIAEENKLCEAAICYTGDILNSARPKYDLKYYTNLAVELEKAGAHIIAVKDMAGLLKPAAAKVLFKALREATGLPIHFHTHDTSGIAAATVLAAVEAGVDAVDAAMDALSGNTSQPCLGSIVEALSGSERDPGLDPAWIRRISFYWEAVRNQYAAFESDLKGPASEVYLHEMPGGQFTNLKEQARSLGLETRWHQVAQAYADANQMFGDIVKVTPSSKVVGDMALMMVSQDLTVADVVSPDREVSFPESVVSMLKGDLGQPPSGWPEALQKKALKGEKPYTVRPGSLLKEADLDAERKVIEKKLEREVSDFEFASYLMYPKVFTDFALASDTYGPVSVLPTPAYFYGLADGEELFADIEKGKTLVIVNQAVSATDSQGMVTVFFELNGQPRRIKVPDRAHGATGAAVRRKAEPGNAAHVGAPMPGVISRVFVSSGQAVNAGDVLVSIEAMKMETAIHAEKDGTIAEVLVKAGDQIDAKDLLAVYGG |  | 4
